Experimental data as given in doi:10.1101/2025.11.03.686288.

Legend:
[1] = target: C-terminal His6-tagged PEX19 full-length (T. brucei); assay: AlphaScreen or HTRF
[2] = target: N-terminal GST-tagged PEX38 full-length (T. brucei); assay: AlphaScreen or HTRF
[3] = target: TbPEX38 (65-134) (T. brucei); assay: ITC

GST-PEX3Δ1-44 (domain or fragment) showed a fold higher affinity for PEX19 than PEX38 [1] of 30 fold.
Work on “C-terminal His6-tagged PEX19 N50 (domain or fragment)” yielded a fold weaker interaction with PEX38^FL than PEX19^FL (AlphaScreen signal) [2] of 10 fold.
TbPEX38 (65-134) (domain or fragment) was tested, and the IC50 [1] was 446 nM.
In the case of “untagged PEX38 full-length (natural protein)”, the IC50 [1] is reported as 950 nM.
Work on “TbPEX19 (1-50-SGGY) (domain or fragment)” yielded a Kd [3] of 3000 nM.
